According to paper PMC12041529:

Experiment: western blot, co-transfected HEK293T
Conditions: glycan lost; control: Flag-GPNMB (WT)

B1: glycoprotein nonmetastatic melanoma protein B (GPNMB): GPNMB296Q (protein)
parent chain: MECLYYFLGFLLLAARLPLDAAKRFHDVLGNERPSAYMREHNQLNGWSSDENDWNEKLYPVWKRGDMRWKNSWKGGRVQAVLTSDSPALVGSNITFAVNLIFPRCQKEDANGNIVYEKNCRNEAGLSADPYVYNWTAWSEDSDGENGTGQSHHNVFPDGKPFPHHPGWRRWNFIYVFHTLGQYFQKLGRCSVRVSVNTANVTLGPQLMEVTVYRRHGRAYVPIAQVKDVYVVTDQIPVFVTMFQKNDRNSSDETFLKDLPIMFDVLIHDPSHFLNYSTINYKWSFGDNTGLFVSTNHTVNHTYVLNGTFSLNLTVKAAAPGPCPPPPPPPRPSKPTPSLATTLKSYDSNTPGPAGDNPLELSRIPDENCQINRYGHFQATITIVEGILEVNIIQMTDVLMPVPWPESSLIDFVVTCQGSIPTEVCTIISDPTCEITQNTVCSPVDVDEMCLLTVRRTFNGSGTYCVNLTLGDDTSLALTSTLISVPDRDPASPLRMANSALISVGCLAIFVTVISLLVYKKHKEYNPIENSPGNVVRSKGLSVFLNRAKAVFFPGNQEKDPLLKNQEFKGVS
other: SNAP29 protein level: decreases
